In the supplement of paper PMC9112550, “Optimization of the antimicrobial peptide Bac7 by deep mutational scanning” (BMC Biology, 2022):

System: Escherichia coli TOP10
Assay: shrunken log2 fold change of peptide-encoding DNA abundance (4.5 h post-induction vs induction); higher = less antimicrobial activity (less host growth inhibition)
Conditions: time post-induction: 4.5 h; library: site-saturation at positions 5, 18, 19, 20
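Further: peptides expressed intracellularly from a pBAD plasmid library in pooled LB shake-flask culture, induced with 0.3% L-arabinose, DNA abundance read by NGS, three biological replicates, DESeq2 with apeglm shrinkage.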

RRIRPRPPRLPRPRPRPELWPRP
shrunken log2 fold change: 0.889

RRIRPRPPRLPRPRPRPEMHPRP
shrunken log2 fold change: 0.395

RRIRPRPPRLPRPRPRPEMYPRP
shrunken log2 fold change: -0.269

RRIRPRPPRLPRPRPRPENRPRP
shrunken log2 fold change: 0.0972

RRIRPRPPRLPRPRPRPEPDPRP
shrunken log2 fold change: 0.537

RRIRPRPPRLPRPRPRPEQIPRP
shrunken log2 fold change: 0.0118

RRIRPRPPRLPRPRPRPERCPRP
shrunken log2 fold change: 0.271

RRIRPRPPRLPRPRPRPERRPRP
shrunken log2 fold change: 0.158

RRIRPRPPRLPRPRPRPESCPRP
shrunken log2 fold change: 0.239

RRIRPRPPRLPRPRPRPESKPRP
shrunken log2 fold change: 0.224

RRIRPRPPRLPRPRPRPETAPRP
shrunken log2 fold change: 0.396

RRIRPRPPRLPRPRPRPEVRPRP
shrunken log2 fold change: -0.0106

RRIRPRPPRLPRPRPRPEVVPRP
shrunken log2 fold change: 0.0581

RRIRPRPPRLPRPRPRPEWQPRP
shrunken log2 fold change: 0.137

RRIRPRPPRLPRPRPRPEYIPRP
shrunken log2 fold change: -0.0411

RRIRPRPPRLPRPRPRPFCVPRP
shrunken log2 fold change: 0.156

RRIRPRPPRLPRPRPRPFCYPRP
shrunken log2 fold change: -0.26

RRIRPRPPRLPRPRPRPFDNPRP
shrunken log2 fold change: -0.299

RRIRPRPPRLPRPRPRPFDQPRP
shrunken log2 fold change: -0.295

RRIRPRPPRLPRPRPRPFEGPRP
shrunken log2 fold change: -0.0632

RRIRPRPPRLPRPRPRPFFTPRP
shrunken log2 fold change: -0.117

RRIRPRPPRLPRPRPRPFFWPRP
shrunken log2 fold change: 0.559

RRIRPRPPRLPRPRPRPFICPRP
shrunken log2 fold change: -0.276

RRIRPRPPRLPRPRPRPFQLPRP
shrunken log2 fold change: -0.0657

RRIRPRPPRLPRPRPRPFQQPRP
shrunken log2 fold change: -0.000989

RRIRPRPPRLPRPRPRPFSEPRP
shrunken log2 fold change: -0.436

RRIRPRPPRLPRPRPRPFSPPRP
shrunken log2 fold change: -0.266

RRIRPRPPRLPRPRPRPFSQPRP
shrunken log2 fold change: -0.231

RRIRPRPPRLPRPRPRPFVYPRP
shrunken log2 fold change: -0.706

RRIRPRPPRLPRPRPRPGAHPRP
shrunken log2 fold change: 0.355

RRIRPRPPRLPRPRPRPGARPRP
shrunken log2 fold change: 1.19

RRIRPRPPRLPRPRPRPGAVPRP
shrunken log2 fold change: 0.379

RRIRPRPPRLPRPRPRPGDYPRP
shrunken log2 fold change: -0.0215

RRIRPRPPRLPRPRPRPGEAPRP
shrunken log2 fold change: 0.426

RRIRPRPPRLPRPRPRPGEHPRP
shrunken log2 fold change: -0.133

RRIRPRPPRLPRPRPRPGERPRP
shrunken log2 fold change: 0.1

RRIRPRPPRLPRPRPRPGFMPRP
shrunken log2 fold change: 0.048

RRIRPRPPRLPRPRPRPGFSPRP
shrunken log2 fold change: -0.0307

RRIRPRPPRLPRPRPRPGGIPRP
shrunken log2 fold change: 0.114

RRIRPRPPRLPRPRPRPGGPPRP
shrunken log2 fold change: 0.41

RRIRPRPPRLPRPRPRPGHIPRP
shrunken log2 fold change: -0.196

RRIRPRPPRLPRPRPRPGHTPRP
shrunken log2 fold change: 0.179

RRIRPRPPRLPRPRPRPGIPPRP
shrunken log2 fold change: -0.157

RRIRPRPPRLPRPRPRPGLLPRP
shrunken log2 fold change: 0.217

RRIRPRPPRLPRPRPRPGMEPRP
shrunken log2 fold change: 0.367

RRIRPRPPRLPRPRPRPGMVPRP
shrunken log2 fold change: 0.268

RRIRPRPPRLPRPRPRPGMWPRP
shrunken log2 fold change: 0.303

RRIRPRPPRLPRPRPRPGNFPRP
shrunken log2 fold change: -0.25

RRIRPRPPRLPRPRPRPGNKPRP
shrunken log2 fold change: -0.0476

RRIRPRPPRLPRPRPRPGNVPRP
shrunken log2 fold change: -0.344

RRIRPRPPRLPRPRPRPGPGPRP
shrunken log2 fold change: 0.621

RRIRPRPPRLPRPRPRPGQGPRP
shrunken log2 fold change: 0.201

RRIRPRPPRLPRPRPRPGQTPRP
shrunken log2 fold change: -0.00112

RRIRPRPPRLPRPRPRPGSQPRP
shrunken log2 fold change: 0.127

RRIRPRPPRLPRPRPRPGVDPRP
shrunken log2 fold change: 0.0426

RRIRPRPPRLPRPRPRPGWFPRP
shrunken log2 fold change: 0.238

RRIRPRPPRLPRPRPRPGWNPRP
shrunken log2 fold change: -0.055

RRIRPRPPRLPRPRPRPGYKPRP
shrunken log2 fold change: -0.141

RRIRPRPPRLPRPRPRPHAFPRP
shrunken log2 fold change: 0.0176

RRIRPRPPRLPRPRPRPHAQPRP
shrunken log2 fold change: -0.119

RRIRPRPPRLPRPRPRPHCCPRP
shrunken log2 fold change: -0.181

RRIRPRPPRLPRPRPRPHCEPRP
shrunken log2 fold change: 0.308

RRIRPRPPRLPRPRPRPHCWPRP
shrunken log2 fold change: 0.151

RRIRPRPPRLPRPRPRPHCYPRP
shrunken log2 fold change: -0.2

RRIRPRPPRLPRPRPRPHDGPRP
shrunken log2 fold change: -0.0292

RRIRPRPPRLPRPRPRPHDTPRP
shrunken log2 fold change: -0.272

RRIRPRPPRLPRPRPRPHFAPRP
shrunken log2 fold change: 0.284

RRIRPRPPRLPRPRPRPHKIPRP
shrunken log2 fold change: -0.193

RRIRPRPPRLPRPRPRPHLCPRP
shrunken log2 fold change: 0.0476

RRIRPRPPRLPRPRPRPHLIPRP
shrunken log2 fold change: -0.287

RRIRPRPPRLPRPRPRPHLQPRP
shrunken log2 fold change: 0.152

RRIRPRPPRLPRPRPRPHMVPRP
shrunken log2 fold change: -0.0201

RRIRPRPPRLPRPRPRPHMYPRP
shrunken log2 fold change: -0.316

RRIRPRPPRLPRPRPRPHNHPRP
shrunken log2 fold change: -0.609

RRIRPRPPRLPRPRPRPHNKPRP
shrunken log2 fold change: -0.508

RRIRPRPPRLPRPRPRPHQQPRP
shrunken log2 fold change: -0.14

RRIRPRPPRLPRPRPRPHRIPRP
shrunken log2 fold change: -0.414

RRIRPRPPRLPRPRPRPHTNPRP
shrunken log2 fold change: 0.401

RRIRPRPPRLPRPRPRPHVAPRP
shrunken log2 fold change: 0.218

RRIRPRPPRLPRPRPRPHWIPRP
shrunken log2 fold change: -0.212

RRIRPRPPRLPRPRPRPIAGPRP
shrunken log2 fold change: 0.0445

RRIRPRPPRLPRPRPRPIANPRP
shrunken log2 fold change: -0.12

RRIRPRPPRLPRPRPRPIAQPRP
shrunken log2 fold change: 0.487

RRIRPRPPRLPRPRPRPIAVPRP
shrunken log2 fold change: -0.0448

RRIRPRPPRLPRPRPRPICDPRP
shrunken log2 fold change: -0.0726

RRIRPRPPRLPRPRPRPICRPRP
shrunken log2 fold change: -0.276

RRIRPRPPRLPRPRPRPIDVPRP
shrunken log2 fold change: -0.148

RRIRPRPPRLPRPRPRPIEQPRP
shrunken log2 fold change: 0.000804

RRIRPRPPRLPRPRPRPIETPRP
shrunken log2 fold change: 0.0267

RRIRPRPPRLPRPRPRPIHLPRP
shrunken log2 fold change: -0.146

RRIRPRPPRLPRPRPRPIIAPRP
shrunken log2 fold change: -0.681

RRIRPRPPRLPRPRPRPIIGPRP
shrunken log2 fold change: -0.0597

RRIRPRPPRLPRPRPRPIKSPRP
shrunken log2 fold change: -0.0993

RRIRPRPPRLPRPRPRPILAPRP
shrunken log2 fold change: 0.273

RRIRPRPPRLPRPRPRPILCPRP
shrunken log2 fold change: 0.179

RRIRPRPPRLPRPRPRPILLPRP
shrunken log2 fold change: -0.526

RRIRPRPPRLPRPRPRPIMCPRP
shrunken log2 fold change: -0.221

RRIRPRPPRLPRPRPRPIMPPRP
shrunken log2 fold change: -0.257

RRIRPRPPRLPRPRPRPIMVPRP
shrunken log2 fold change: -0.158

RRIRPRPPRLPRPRPRPIMWPRP
shrunken log2 fold change: 0.253

RRIRPRPPRLPRPRPRPIPFPRP
shrunken log2 fold change: -0.0358

RRIRPRPPRLPRPRPRPIPVPRP
shrunken log2 fold change: -0.402

RRIRPRPPRLPRPRPRPIQWPRP
shrunken log2 fold change: 0.0833

RRIRPRPPRLPRPRPRPISDPRP
shrunken log2 fold change: -0.507

RRIRPRPPRLPRPRPRPITGPRP
shrunken log2 fold change: -0.189

RRIRPRPPRLPRPRPRPITSPRP
shrunken log2 fold change: -0.354

RRIRPRPPRLPRPRPRPIVLPRP
shrunken log2 fold change: -0.772

RRIRPRPPRLPRPRPRPIWWPRP
shrunken log2 fold change: 0.665

RRIRPRPPRLPRPRPRPKAPPRP
shrunken log2 fold change: 0.171
